The assay has as its target human NGF (human) (UniProt P01138). Kind of assay: cell-based or functional assay.

human NGF (human), sequence (P01138 122-241 limits assumed): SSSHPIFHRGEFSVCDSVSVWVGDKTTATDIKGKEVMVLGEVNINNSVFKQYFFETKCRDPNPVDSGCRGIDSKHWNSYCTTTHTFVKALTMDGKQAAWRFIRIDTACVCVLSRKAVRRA

For mouse antibody 911 (Fab), the antibody concentration that totally blocked NGF-elicited survival of trigeminal neurons is 20 nM.

The values above are taken from patent US20140017235A1.
